Measurements as given in patent US20080171347A1.

Molecular target: mouse synaptosomes (synaptosome preparation carrying the BoNT/A acceptor complex)

active botulinum neurotoxin type A (BoNT/A) (from UniProt P0DPI1 2-1296)
percent inhibition (maximum at plateau): 78%
